Measurements reported in publication PMC5979959.

Target: human DNAJB6, cytosolic isoform B (human) (UniProt O75190)
Assay: native gel or EMSA + other: negative stain electron microscopy; DNAJB6 oligomers fractionated by GraFix (5-30% sucrose, 0-0.2% glutaraldehyde gradient, 20 mM NaPO4, 150 mM NaCl, pH 8.0, 4 °C); fraction 5 analysed by blue native-PAGE and negative stain EM with single particle reconstruction

human DNAJB6, cytosolic isoform B, O75190-2 1-241 (natural protein; other documents disagree on this pair), sequence (O75190 other isoform, or with tags, fused parts or gaps): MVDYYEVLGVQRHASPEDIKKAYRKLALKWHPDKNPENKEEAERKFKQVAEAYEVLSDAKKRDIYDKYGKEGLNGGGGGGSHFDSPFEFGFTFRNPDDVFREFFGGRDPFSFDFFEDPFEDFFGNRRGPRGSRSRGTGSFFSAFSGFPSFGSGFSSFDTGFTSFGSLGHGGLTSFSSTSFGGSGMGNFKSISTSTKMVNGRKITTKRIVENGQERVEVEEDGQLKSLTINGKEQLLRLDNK

stoichiometry N: 20 subunits
Substance: human DNAJB6, cytosolic isoform B, O75190-2 1-241 (natural protein; other documents disagree on this pair)
